Test results reported in patent US20160368995A1 (University of California, published 2016).

Key:
Experiment in all cases: binding and/or signaling studies
[1] = target: T1, CXCR7 (human, UniProt P25106 1-362)
T1 construct: Tested on CXCR7 expressing cells
Description: (§1) Radioligand displacement studies of various chemotaxis receptors were carried out. For the radioligand binding assay, membranes from HEK293T cells transiently expressing the respective chemokine receptors were incubated with ˜[…] ¹²⁵I-chemokine and increasing concentrations of chemokine (control) or CXCL17. Cells were incubated for 3 h at 4° C. and washed twice with binding buffer containing 0.5 M NaCl. After harvesting the samples with lysis buffer, the remaining cell-bound radioactivity was counted.

[2] = target: T2, CXCR3 (UniProt P49682 1-368, limits assumed)
T2 construct: whole, on cells
T2 sequence (looked up): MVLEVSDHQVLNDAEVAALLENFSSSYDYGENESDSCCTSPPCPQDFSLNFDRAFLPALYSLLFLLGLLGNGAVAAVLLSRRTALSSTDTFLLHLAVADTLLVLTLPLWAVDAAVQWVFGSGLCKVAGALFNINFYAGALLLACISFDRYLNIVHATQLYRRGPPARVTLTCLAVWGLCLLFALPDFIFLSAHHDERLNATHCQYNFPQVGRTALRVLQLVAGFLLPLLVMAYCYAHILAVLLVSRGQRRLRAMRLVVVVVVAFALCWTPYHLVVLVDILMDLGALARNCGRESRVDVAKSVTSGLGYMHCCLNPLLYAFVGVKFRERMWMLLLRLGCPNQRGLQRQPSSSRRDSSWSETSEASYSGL
Description: as §1

[3] = target: T3, CXCR4 (human, UniProt P61073-2 1-356)
T3 construct: The construct used is not described
T3 sequence (P61073 other isoform, or with tags, fused parts or gaps): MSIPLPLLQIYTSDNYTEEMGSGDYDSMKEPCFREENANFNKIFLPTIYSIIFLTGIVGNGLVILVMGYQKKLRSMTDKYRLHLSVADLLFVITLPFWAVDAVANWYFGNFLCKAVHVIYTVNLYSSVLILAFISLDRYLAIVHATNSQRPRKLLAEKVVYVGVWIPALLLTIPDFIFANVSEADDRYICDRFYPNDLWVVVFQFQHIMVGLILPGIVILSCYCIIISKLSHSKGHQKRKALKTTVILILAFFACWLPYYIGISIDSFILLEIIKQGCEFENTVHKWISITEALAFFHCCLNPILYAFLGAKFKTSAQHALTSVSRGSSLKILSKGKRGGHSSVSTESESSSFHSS
Description: as §1

[4] = target: T4, CCR2 (human, UniProt P41597-2 1-360)
T4 sequence: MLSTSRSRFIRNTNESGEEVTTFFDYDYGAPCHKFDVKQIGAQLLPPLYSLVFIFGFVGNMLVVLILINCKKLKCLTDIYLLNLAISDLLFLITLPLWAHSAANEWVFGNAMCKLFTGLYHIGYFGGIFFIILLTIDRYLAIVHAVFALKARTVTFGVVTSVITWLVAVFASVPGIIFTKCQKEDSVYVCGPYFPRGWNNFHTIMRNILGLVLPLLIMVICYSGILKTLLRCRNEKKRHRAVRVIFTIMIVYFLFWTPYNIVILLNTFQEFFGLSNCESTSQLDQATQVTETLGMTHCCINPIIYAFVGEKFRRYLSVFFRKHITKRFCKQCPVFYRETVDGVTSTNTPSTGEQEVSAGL
Description: as §1

[5] = target: T5, CCX-CKR (UniProt Q9NPB9 1-350, limits assumed)
T5 construct: whole, on cells
T5 sequence (looked up): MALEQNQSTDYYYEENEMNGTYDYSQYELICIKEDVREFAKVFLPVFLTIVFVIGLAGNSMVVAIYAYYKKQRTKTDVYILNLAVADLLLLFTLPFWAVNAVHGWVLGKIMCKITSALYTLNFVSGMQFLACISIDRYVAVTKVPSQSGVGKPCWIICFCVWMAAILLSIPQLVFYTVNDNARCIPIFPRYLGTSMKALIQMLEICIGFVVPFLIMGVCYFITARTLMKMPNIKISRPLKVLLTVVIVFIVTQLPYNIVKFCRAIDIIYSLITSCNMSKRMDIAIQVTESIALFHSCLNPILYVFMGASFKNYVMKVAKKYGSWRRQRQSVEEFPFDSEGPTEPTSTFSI
Description: as §1

Measured: binding result

T1 sequence (P25106 whole entry): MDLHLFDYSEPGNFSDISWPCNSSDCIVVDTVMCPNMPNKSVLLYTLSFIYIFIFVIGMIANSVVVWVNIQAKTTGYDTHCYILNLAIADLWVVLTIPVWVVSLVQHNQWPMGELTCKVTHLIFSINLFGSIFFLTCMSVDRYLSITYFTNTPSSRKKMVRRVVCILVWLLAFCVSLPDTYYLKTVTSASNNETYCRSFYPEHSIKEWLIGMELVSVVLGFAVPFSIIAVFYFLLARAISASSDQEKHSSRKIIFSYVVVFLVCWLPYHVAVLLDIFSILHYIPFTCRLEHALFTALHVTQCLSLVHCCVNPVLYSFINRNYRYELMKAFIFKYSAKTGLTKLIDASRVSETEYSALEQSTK

B1: recombinant human CXCL17 (chemokine (C-X-C motif) ligand 17) (ligand)
chain: SSLNPGVARGHRDRGQASRRWLQEGGQECECKDWFLRAPRRKFMTVSGLPKKQCPCDHFKGNVKKTRHQRHHRKPNKHSRACQQFLKQCQLRSFALPL
notes: Bought recombinant protein (R&D Systems); also called human recombinant CXCL17
no binding: all assays above
